Experimental data published in patent publication US20230357447A1 (JANUX THERAPEUTICS, published 2023).

Columns and labels:
[1] = target: T1, anti-CD28 scFv (VH-linker 1-VL) (biotinylated (site not stated)); experiment: phage ELISA; scFv wells pre-incubated with soluble CD28 (competitor);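 further: crude clonal phage supernatants added to wells pretreated with soluble CD28 in blocking buffer, bound phage read via HRP-linked anti-M13 antibody, reference wells got blocking buffer only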
T1 construct: Captured as biotinylated scFv on neutravidin coated plates in the phage ELISA

[2] = target: T1, anti-CD28 scFv (VH-linker 1-VL); experiment: phage ELISA; biotinylated scFv on neutravidin plate; anti-M13-HRP;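 further: crude clonal phage supernatant added to wells pre-incubated with soluble CD28 protein or only blocking buffer, then washed, bound phage read out with an HRP-linked anti-M13 antibody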
Method: (§1) Clonal phage were harvested as crude supernatants and screened via standard enzyme linked immunosorbent assays (ELISAs). […] Prior to the addition of clonal phage, wells were incubated with blocking buffer and CD28 soluble protein or blocking buffer alone. Without washing or aspirating, clonal phage supernatants were then added to the wells and incubated for a short time. Wells were then washed followed by detection of bound phage using a horse radish peroxidase conjugated anti-M13 antibody.

[3] = target: T2, Anti-CD28 scFv (VH-linker 1-VL) (biotinylated (site not stated)); experiment: phage binding ELISA on captured anti-CD28 scFv, wells pre-incubated with soluble CD28 (competitor);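 further: crude clonal phage supernatants added without washing, bound phage detected by HRP-conjugated anti-M13 antibody, control wells held blocking buffer alone instead of CD28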
T2 construct: biotinylated and captured on neutravidin coated plates in the phage ELISA

[4] = target: T2, Anti-CD28 scFv (VH-linker 1-VL); experiment: phage binding ELISA on captured biotinylated anti-CD28 scFv;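 further: crude clonal phage supernatants applied to the wells, bound phage read out with an HRP-conjugated anti-M13 antibody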
Method: as §1

T1 sequence (scFv, as listed by the source): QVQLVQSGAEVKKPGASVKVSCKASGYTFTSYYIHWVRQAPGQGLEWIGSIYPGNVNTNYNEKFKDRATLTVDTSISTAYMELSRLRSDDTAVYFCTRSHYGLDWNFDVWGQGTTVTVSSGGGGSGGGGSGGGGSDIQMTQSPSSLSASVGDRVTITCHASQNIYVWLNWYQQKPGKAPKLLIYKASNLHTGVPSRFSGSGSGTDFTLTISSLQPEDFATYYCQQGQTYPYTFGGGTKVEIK
T2 sequence (scFv, as listed by the source): as above

Row | Binder | CD28 scFv signal in presence of CD28 [1] | CD28 scFv signal [2] | CD28 scFv signal in presence of CD28 [3] | CD28 scFv signal [4]
1 | MDWCPWDMWDKCFN (on phage (pIII fusion)) [Phage-217 clonal phage peptide] | 0.108 | 0.586 |  | 
2 | TFGCPTTMWNRCFA (on phage (pIII fusion)) [Phage-218 clonal phage peptide] | 0.068 | 0.181 |  | 
3 | NYWCPSSMWNRCLH (on phage (pIII fusion)) [Phage-219 clonal phage peptide] | 0.088 | 0.158 |  | 
4 | FDFCPTTMWTYCQH (on phage (pIII fusion)) [Phage-220 clonal phage peptide] | 0.081 | 0.086 |  | 
5 | TTWCPTSMWLHCFD (on phage (pIII fusion)) [Phage-221 clonal phage peptide] | 0.072 | 0.074 |  | 
6 | MDWCPRDQWHNCFN (on phage (pIII fusion)) [Phage-222 clonal phage peptide] | 0.078 | 0.2 |  | 
7 | MDWCPRDRWVDCFF (on phage (pIII fusion)) [Phage-223 clonal phage peptide] | 0.14 | 1.58 |  | 
8 | MDWCPRDRWADCFF (on phage (pIII fusion)) [Phage-225 clonal phage peptide] | 0.089 | 0.392 |  | 
9 | MDWCPKDRWNDCYF (on phage (pIII fusion)) [Phage-224 clonal phage peptide] |  | 1.09 |  | 
10 | MDWCPRDRWIDCFN (on phage (pIII fusion)) [Phage-226 clonal phage peptide] | 0.131 | 0.339 |  | 
11 | MDWCPRDRWSDCFN (on phage (pIII fusion)) [Phage-227 clonal phage peptide] | 0.074 | 0.102 |  | 
12 | ITWCHVISGLECWN (on phage (pIII fusion)) [Phage-228 clonal phage peptide] | 0.1 | 0.193 |  | 
13 | MDWCPRILWSDCFN [Phage-373] |  |  | 0.113 | 0.847
14 | MAWCPLDLWDKCFY [Phage-374] |  |  | 0.141 | 0.77
15 | MNWCPRALWHECFL [Phage-375] |  |  | 0.107 | 0.759
16 | MDWCPRHLWTYCFH [Phage-376] |  |  | 0.207 | 0.757
17 | MDWCPFDLWLECFN [Phage-377] |  |  | 0.12 | 0.65
18 | MHWCPLHLWNECFA [Phage-378] |  |  | 0.083 | 0.575
19 | MDWCPRNLWAECFS [Phage-379] |  |  | 0.08 | 0.538
20 | MDYCPSYLWHECFA [Phage-380] |  |  | 0.09 | 0.47
21 | MAWCPRILWHQCFN [Phage-381] |  |  | 0.129 | 0.322
22 | ITWCPTSLWNRCLV [Phage-382] |  |  | 0.089 | 0.242
23 | LAGCQRDLATVCVI [Phage-383] |  |  | 0.116 | 0.229
24 | IMWCPTSLWNRCVT [Phage-384] |  |  | 0.129 | 0.161
25 | ILRCQMNLQDECLN [Phage-385] |  |  | 0.077 | 0.083
26 | NHWCPTTLWNRCVA [Phage-386] |  |  | 0.093 | 0.078
27 | MDWCPFDMWADCFF [Phage-391] |  |  | 0.215 | 2.53

Row | Binder | CD28 scFv signal in presence of CD28 [1] | CD28 scFv signal [2] | CD28 scFv signal in presence of CD28 [3] | CD28 scFv signal [4]
28 | MDWCPRDMWFECFN [Phage-393] |  |  | 0.778 | 2.42
29 | MDWCPRYMWSDCFF [Phage-394] |  |  | 0.377 | 2.28
30 | MDWCPKDMWAECFN [Phage-395] |  |  | 0.457 | 2.11
31 | TDWCPRDMWYLCFN [Phage-396] |  |  | 0.301 | 2.11
32 | MDWCPRAMWDYCFY [Phage-397] |  |  | 0.339 | 2.11
33 | MDWCPRNMWNECFF [Phage-398] |  |  | 0.43 | 2.1
34 | MDWCPRSMWDSCFN [Phage-399] |  |  | 0.142 | 2.02
35 | MHWCPTYMWSECFA [Phage-400] |  |  | 0.161 | 1.84
36 | MDWCPLDMWVLCFA [Phage-401] |  |  | 0.169 | 1.84
37 | MDWCPRHMWHECFH [Phage-402] |  |  | 0.171 | 1.81
38 | MSWCPWDMWNECFA [Phage-403] |  |  | 0.108 | 1.52
39 | MDWCPRDMWTSCFN [Phage-404] |  |  | 0.179 | 1.41
40 | MDWCPMSMWAFCFD [Phage-405] |  |  | 0.16 | 1.41
41 | MNWCPIDMWTECFN [Phage-406] |  |  | 0.175 | 1.4
42 | MNWCPIHMWNQCFA [Phage-407] |  |  | 0.133 | 1.37
43 | MFWCPKDMWAECFA [Phage-408] |  |  | 0.113 | 1.26
44 | LHWCPITMWTYCYY [Phage-409] |  |  | 0.516 | 1.21
45 | IDWCPRYMWHECFF [Phage-410] |  |  | 0.164 | 1.18
46 | MSWCPRFMWHECFN [Phage-411] |  |  | 0.246 | 1.11
47 | QHWCPRDMWNDCYA [Phage-412] |  |  | 0.149 | 1.08
48 | MDWCPSDMWSNCFN [Phage-413] |  |  | 0.121 | 1.07
49 | LYWCPRDMWAYCYS [Phage-414] |  |  | 0.157 | 1.02
50 | MDWCPMYMWHKCFH [Phage-415] |  |  | 0.168 | 0.987
51 | IYWCPTAMWNRCSA [Phage-417] |  |  | 0.073 | 0.817
52 | MYWCPKYMWSECFA [Phage-418] |  |  | 0.099 | 0.741
53 | MFWCPSTMWNRCFD [Phage-420] |  |  | 0.138 | 0.464
54 | MYWCPINMWDYCYA [Phage-422] |  |  | 0.088 | 0.109
